Biological target: LTBR (form used for the KD values not stated) (human, UniProt P36941 31-227, limits assumed)
Assay: method and format not stated

Chain of LTBR (form used for the KD values not stated) (P36941 31-227 limits assumed): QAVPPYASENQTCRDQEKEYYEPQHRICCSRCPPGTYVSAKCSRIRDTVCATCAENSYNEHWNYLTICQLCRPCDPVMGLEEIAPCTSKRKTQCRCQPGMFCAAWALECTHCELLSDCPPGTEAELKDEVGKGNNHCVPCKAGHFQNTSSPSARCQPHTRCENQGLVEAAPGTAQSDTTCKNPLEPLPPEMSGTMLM

Kd | Binder
~60 nM | SEQ ID NO 53: stapled scFv (VL3 Y36F_S49Y_F87Y) BHA10 (VH-VL), lower affinity variant (scFv, scFv used in COVA14107) scFv: QVQLVQSGAEVKKPGSSVKVSCKASGYTFTTYYLHWVRQAPGCGLEWMGWIYPGNVHAQYNEKFKGRVTITADKSTSTAYMELSSLRSEDTAVYYCARSWEGFPYWGQGTTVTVSSGGGSGGGSGCPPCGGGGDIQMTQSPSSLSASVGDRVTITCKASQNVGINVAWFQQKPGKAPKSLIYSASYRYSGVPSRFSGSGSGTDFTLTISSLQPEDFATYYCQQYDTYPFTFGCGTKVEIK
~600 nM | SEQ ID NO 54: stapled scFv (VH_CDR1_Y33A) BHA10 (VH-VL), lower affinity variant (scFv, scFv used in COVA14108) scFv: QVQLVQSGAEVKKPGSSVKVSCKASGYTFTTYALHWVRQAPGCGLEWMGWIYPGNVHAQYNEKFKGRVTITADKSTSTAYMELSSLRSEDTAVYYCARSWEGFPYWGQGTTVTVSSGGGSGGGSGCPPCGGGGDIQMTQSPSSLSASVGDRVTITCKASQNVGINVAWYQQKPGKAPKSLISSASYRYSGVPSRFSGSGSGTDFTLTISSLQPEDFATYFCQQYDTYPFTFGCGTKVEIK
